{"source": "patent US20180318417A1", "about": "(COMPASS THERAPEUTICS, published 2018)", "binders": {"B1": {"name": "PID-90 (monospecific anti-CD137; Urelumab Fab domain, human IgG1 constant domain) (antibody, V domains shown)", "VH": "QVQLQQWGAGLLKPSETLSLTCAVYGGSFSGYYWSWIRQSPEKGLEWIGEINHGGYVTYNPSLESRVTISVDTSKNQFSLKLSSVTAADTAVYYCARDYGPGNYDWYFDLWGRGTLVTVSS", "VL": "EIVLTQSPATLSLSPGERATLSCRASQSVSSYLAWYQQKPGQAPRLLIYDASNRATGIPARFSGSGSGTDFTLTISSLEPEDFAVYYCQQRSNWPPALTFGGGTKVEIKR", "notes": "also called PID90 (CD137)"}, "B2": {"name": "PID-7 (bispecific Her2/PD-1 MIAC; Pembrolizumab IgG1 with Trastuzumab scFv at the heavy chain C-termini) (bispecific antibody)", "heavy": "not shown", "light": "EIVLTQSPATLSLSPGERATLSCRASKGVSTSGYSYLHWYQQKPGQAPRLLIYLASYLESGVPARFSGSGSGTDFTLTISSLEPEDFAVYYCQHSRDLPLTFGGGTKVEIKRTVAAPSVFIFPPSDEQLKSGTASVVCLLNNFYPREAKVQWKVDNALQSGNSQESVTEQDSKDSTYSLSSTLTLSKADYEKHKVYACEVTHQGLSSPVTKSFNRGEC", "notes": "also called α-Her2/α-PD-1"}, "B3": {"name": "PID-92 (bispecific Her2/CD137 MIAC; Urelumab IgG1 with Trastuzumab scFv at the heavy chain C-termini) (bispecific antibody)", "heavy": "not shown", "light": "not shown", "notes": "also called α-Her2/α-CD137 MIAC; PID92 [Her2/CD137]"}, "B4": {"name": "PID-2 (monospecific anti-PD-1; Pembrolizumab Fab domain, human IgG1 constant domain) (antibody, V domains shown)", "VH": "QVQLVQSGVEVKKPGASVKVSCKASGYTFTNYYMYWVRQAPGQGLEWMGGINPSNGGTNFNEKFKNRVTLTTDSSTTTAYMELKSLQFDDTAVYYCARRDYRFDMGFDYWGQGTTVTVSS", "VL": "EIVLTQSPATLSLSPGERATLSCRASKGVSTSGYSYLHWYQQKPGQAPRLLIYLASYLESGVPARFSGSGSGTDFTLTISSLEPEDFAVYYCQHSRDLPLTFGGGTKVEIKR", "notes": "also called PID2 (PD-1)"}}, "key": {"[1]": {"target": "T1, Recombinant human CD137 Fc fusion protein (Sino Biological) (human, UniProt Q07011 24-186)", "T1 construct": "not shown: Fc part of the bought fusion protein", "experiment": "ForteBio Octet BLI; antigen-Fc on Protein A sensor, 100 nM construct", "description": "(§1) Antigen binding of MIAC constructs were analyzed using ForteBio Octet. […] All antigens were reconstituted in PBS at the final concentration of 0.25 ug/ul. […] Association proceeded by dipping sensors in 100 nM MIAC constructs for 5 minutes and disassociation occurred in blank kinetics buffer for 5 minutes. For CD3 epsilon binding, antigen was immobilized on Ni-NTA sensors; association was performed in 50 nM MIAC constructs. Binding data were analyzed using ForteBio Data Analysis 9.0 software."}, "[2]": {"target": "T2, Recombinant human PD-1 Fc fusion protein (Sino Biological) (human, UniProt Q15116 25-167)", "T2 construct": "not shown: Fc part of the bought fusion protein", "T2 sequence (Q15116 25-167 limits assumed)": "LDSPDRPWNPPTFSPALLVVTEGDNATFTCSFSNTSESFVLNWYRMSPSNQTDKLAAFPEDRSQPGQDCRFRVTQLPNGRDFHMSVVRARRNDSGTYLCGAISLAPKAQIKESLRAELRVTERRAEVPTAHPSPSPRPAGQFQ", "experiment": "ForteBio Octet BLI; antigen-Fc on Protein A sensor, construct in solution"}, "[3]": {"target": "T3, Recombinant human Her2 Fc fusion protein (Sino Biological) (human, UniProt P04626 23-652)", "T3 construct": "not shown: Fc part of the bought fusion protein", "experiment": "ForteBio Octet BLI; antigen-Fc on Protein A sensor, construct in solution"}, "[4]": {"target": "T2, Recombinant human PD-1 Fc fusion …", "experiment": "ForteBio Octet BLI; antigen-Fc on Protein A sensor, 100 nM construct", "description": "as §1"}, "[5]": {"target": "T1, Recombinant human CD137 Fc fusion …", "experiment": "ForteBio Octet BLI; antigen-Fc on Protein A sensor, construct in solution"}}}
{"binder": "B1", "values": [{"measurement": "Kd", "setting": "[1]", "value": 0.7, "unit": "nM"}, {"measurement": "binding result", "setting": "[2]", "value": "no binding (tested: 100 nM)"}, {"measurement": "binding result", "setting": "[3]", "value": "no binding (tested: 100 nM)"}]}
{"binder": "B2", "values": [{"measurement": "Kd", "setting": "[4]", "value": 0.12, "unit": "nM"}, {"measurement": "binding result", "setting": "[5]", "value": "no binding (tested: 100 nM)"}]}
{"binder": "B3", "values": [{"measurement": "Kd", "setting": "[1]", "value": 0.23, "unit": "nM"}, {"measurement": "binding result", "setting": "[2]", "value": "no binding (tested: 100 nM)"}]}
{"binder": "B4", "values": [{"measurement": "binding result", "setting": "[5]", "value": "no binding (tested: 100 nM)"}, {"measurement": "binding result", "setting": "[3]", "value": "no binding (tested: 100 nM)"}]}
